Measured values as given in publication PMC10140031 (2023).

Biological target: human complement C3a (human, UniProt P01024 672-748)
Test: SPR

Sequence of human complement C3a (P01024 672-748): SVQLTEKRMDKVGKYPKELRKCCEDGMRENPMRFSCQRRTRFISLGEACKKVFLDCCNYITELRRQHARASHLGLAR

B1: His-ISG65_(18-363)-Avi, C-terminally biotinylated (domain or fragment)
chain: LLVIGSEDNRVPGDKKLTKEGAAALCKMKHLADKVAKERSQELKDRTQNFAGYIEFELYRIDYWLEKLNGPKGRKDGYAKLSDSDIEKVKEIFNKAKDGITKQLPEAKKAGEEAGKLHTEVKKAAENARGQDLDDDTAKSTGLYRVLNWYCITKEERHNATPNCDGIQFRKHYLSVNRSAIDCSSTSYEENYDWSANALQVALNSWEDVKPKKLESAGSDKNCNIGQSSESHPCTMTEEWQTPYKETVEKLRELEDAYQRGKKAHDAMLGYANTAYAVNTKVEQEKPLTEVIAAAKEAGKKGAKIIIPAAAPATPTNSTKNDDSAPTEHVDRGIATNETQVEVGID
modifications: biotin on the C-terminal Avi-tag (site-specific Avi-tag biotinylation)
Kd: 18 µM
